Source: patent US20040120947A1

Biological target: soluble His-tagged Apo-2L (UniProt P50591)
Experiment: KinExA; column head 'Affinity (pM)'

UniProt P50591, sequence (P50591 114-281 limits assumed): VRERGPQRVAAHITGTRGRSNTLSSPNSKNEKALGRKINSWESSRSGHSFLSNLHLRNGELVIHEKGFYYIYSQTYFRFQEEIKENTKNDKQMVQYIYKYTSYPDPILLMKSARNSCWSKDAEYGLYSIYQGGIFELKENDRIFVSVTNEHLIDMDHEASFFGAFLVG

Kd: 1 pM
Substance: DR5-IgG (Fc fusion)
